To fix the notation:
B1: 26 (protein, listed as Variovorax paradoxus)
chain: MATHMAPMKNKIALEEHFAIDLTIADSQVYARPEVWQGLKSNLLDFEQQRLEKMDEWGTEFSILSLNSPAVQGIPDAKRAIEVAQRANDVLAEQVKRHPTRFGGFAALPMQDPEASARELERCVNQLGFHGFLVNGFSQVGDENIVVYYDDARFNDFWTAAAALKKPFYMHPRDPLLAREPIYDGAHWLTGPTWAFAMETAIHALRLMSSGMFDRHPALQMILGHFGEGIPFNIWRVDHILRKGRRGMPCDKEIGEYLRSNVHITTSGNFRTPTLLSTMLEVGSDRIMYSVDYPFEKHEDAARWFDTCEISENDRQKIGRDNARKLFGLK
B2: 21 (protein, listed as Agrobacterium tumefaciens)
chain: MAQGKVALEEHFAIPETLQDSAGFVPGDYWKELQHRLLDIQDTRLKLMDAHGIETMILSLNAPAVQAIPDRKKAIEIARRANDVLAEECARRPDRFLAFAALPLQDPDAATQELQRCVNDLGFVGALVNGFSQEGDGQTPLYYDLPQYRPFWGEVEKLDVPFYLHPRNPLPQDSRIYDGHPWLLGPTWAFAQETAVHALRLMASGLFDAHPRLNIILGHMGEGLPYMMWRIDHRNAWVKLPPRYPAKRRFVDYFNENFHITTSGNFRTQTLIDAILEIGADRILFSTDWPFENIDHASDWFNATTIAEADRVKIGRTNARRLFKLDGR
B3: 22 (protein, listed as Staphylococcus epidermidis)
chain: MAKSINFEEHYVVDDIQKETMKYMSSDPNGVPMQTMLKGLEQKSGFTNADDITKHDERIKFMDEHDVEMQVLSYGNGAPSNLEGERAIELCQQANDTLAKYVNEHPDRFVGFATLPINEPQAAVEEFKRCIKELGFKGALIMGHPKNGFLDQDQYDDLFATAEALNVPIYLHPSPVQSDVYQAYYKGNYSDVTAATFACFGYGWHVDVGIHAIHLVLSGVFDRHPNLNMIIGHWGEFVPFFLERMDDILFADHLEHPISYYFKNNFYITPSGMLTKPQFDLVKAEVGVDRILYSADYPYVEPDKLGTFLDELDLTEEEKEKISYKNGAKLLGLEK
B4: 89 (protein, listed as Erwinia billingiae)
chain: MATNRRDFLKNATAVMAGSTVFAGSSHFASAAAVEPAAVQPPRRIIALEEHFMLPEFVGYLHETQQNLRNGLVDKVVTPLSDFGKGRLEIMDKNGVDFAVLSLSGPGVQAEPDRVKAVRLARYANDKLATEMQKNPRRYGGFAHLAMQDPLAAANELERCVKQLHMQGGMINGETDGLYLDDRRYDVFWERVEALNVPIYIHPGNPPDYPHMFAGHPEMWGPVWSWAVETCSHALRLIFSGTFDRYPGARVILGHMGETLPIQLWRLDSRYQIANQTFAIKHPPSWYAKKNITITTSGVCNDAALRCALDSMGSENVMFSIDYPFESTEIAVNWLKTANITEQERNAVAWGNATSILRLGA
B5: 37 (protein, listed as Burkholderia gladioli)
chain: MATFSNVKKIALEEHFAIAETIEDSAGFVPPDDWVELRGRLLDIQERRLAEMDRAGIELMVLSLNAPAVQAIRDPRQAVELARRANDYLAEQVARRPDRFRAFAALPMQAPEQAIREAERCVRELGFVGALVNGFSEAEDGAELYYDLPRYRPFWAALEALEVPFYLHPRNPLAGRAPIYDGHSWLMGPTWAFGQETAVHALRLMGSGLFDAHPRLQIILGHMGEGLPYSMWRVDNRNAWVSAKPNYPAEKPIAEYFRNNFWLTTSGNFRTQTLIDAMLEIGSDRILFSADWPFENMDHAADWFDHASISENDRIKIGRGNAERLLKLGR
B6: 88 (protein, listed as Starkeya novella)
chain: MARKIALEEHFTTPELAGKYVARPTQSDALFADIERRLADFDELRLEMMDRAEIDLMVLSVTTPGVQGVRDTGEAIRLARGANDFLAREVQKRPSRYAGFAHLAMQDAEAAATELERAVRELGFRGALINGQTNGHYLDEDQYAPFWERVQELDVPVYLHPGNMADSPAMFAHRPELGGPIWAWTAETAAHALRLVFGGTFTRFPGAKVILGHMGETLPFLLWRLDSRREFDLGEKLAPDALPSAIIKRNIAVTTSGVCDPAPLVAALQALSDDNVMFSVDYPYEDPQLASKFIETAPIGEETRAKVCHGNAERLLGL
B7: 4 (protein, listed as Lactobacillus buchneri)
chain: MAKVITLEEHFSSQKLGQKMAEVLPKRPIGNVSPKMQDYMQRSLPPEAELEDVTGSRIQWMDQHQISMQILSYGNQNPQNSDPKFAVELTKLANDELAKAVAKAPDRFRAFASLPVSHPTDAAAELKRGVEELGFKGAMLVRPTSQAHPFFDDPFYLPIFEAAANLNVPVYLHPSFPDSQIIDYYYSNGPWDDKVSGILGTAGYGWHTDVGIQTVRLLLSGVFEKYPNLKLISGHWGEFASFALERMDQVMYPETNLSEPISKIYRDHVYVTPSGILTEPQLKFVKDEVGIEHLLYSIDYPYIKPENSGSFIESSPLTDEEKELFAHGNAEKLLQL
B8: 19 (protein, listed as Talaromyces marneffei)
chain: MATPIITLEEHYISSAIRDASETDHYAVFPSQIISKLNTLSTERLQDLDNGHVSLQVISHGPGAQPPYLCQAANDELASAISANPTRFAGFALLPIAEPQLAVQELERCITQHKFVGALIDNHTNGQFYDDQKFWPVFEKAQELDAPIYVHPSYPDEESGVAAHYRGNYDDRIAAALGAYGWGWHSDTALSILRLFAAGLFDTYPNIKIIIGHMGEMLPFQLERVIGIASRFGRSRGLREVWTQNIWVTTSGMFALAPLACLLQTMPIERVLYSVDYPFSANEKGFAFLEEIKKSGLIKEGEDWERFLYKNAQELLKVNV
B9: 87 (protein, listed as Novosphingobium sp.)
chain: MASDIATAADLQTGGRQGYLRIATEEAFATRDQIDVYLRMVRDGTADRGMTSLWGFYAQSPSARATQIIERLLDLGEQRLADMDAAGIDKAVLALTSPGVQPLLDMEEARRIAGNANDRLAERCAAHPDRFIGMTAVAPQDPQWSAREILRGATQLGFKGVQINSHTQGRYLDEPFFDPIFRALGDVGQPLYIHPGTPPDSMIGPLLDAGLDGAIYGFGVETGMHLLRLITAGIFDRYPDLQIMVGHMGEALPYWLYRLDYMHQAGIRSQRYERMRPLKRTIAGYFRSNVLVTCSGMAWEPAIQFARQVMGEDRVMYAMDYPYQYEADEVRALDVMDLSPESKRKFFQTNAERWFDL
B10: 38 (protein, listed as Variovorax paradoxus)
chain: MAQGKIGLEEHFAIPQTLQDSAGFVPGVYWKELSSRLLDIHDGRLRQMDEHGMEMMILSLNAPAVQAVADPVKAYELAVRANDFLAEQVAKRPDRFQAFAALPMQDPEKATQELERCMSVLGFRGALVNGFSQVGTPDNVAYYDAPQYAPFWAAAERLDAPFYLHPRNPIASWAQIYEGHPWLLGPTWAFAQETAVHALRLMASGLFDRHPGLKIILGHLGEGLPYNMWRVDHRNAWVKAPKGYPAKRKLCEYFQENFYLTTSGNFRTQTLIDAMLEVGSDRILFSTDWPFENIDHASNWFNDTSISEADRKKIGRTNAMSLFKLA
B11: 5 (protein, listed as Staphylococcus aureus)
chain: MAQNNMEANQMKSITFEEHYVIEDIQKETMNAISADPKGVPMKVMLEGLEKKTGFTNADELSHHDERIQFMNNQDVQIQVLSYGNGSPSNLVGQKAIELCQKANDQLANYIAQYPNRFVGFATLPINEPEAAAREFERCINDLGFKGALIMGRAQDGFLDQDKYDIIFKTAENLGVPIYLHPAPVNSDIYQSYYKGNYPEVTAATFACFGYGWHIDVGIHAIHLVLSGIFDRYPKLNMIIGHWGEFIPFFLERMDEALFAEHLNHPVSYYFKNNFYITPSGMLTKPQFDLVKKEAGIDRILYAADYPYIEPEKLGVFLDELGLTDEEKEKISYTNGAKLLGLSSNN
B12: 16 (protein, listed as Staphylococcus aureus)
chain: B11 chain with A131T
B13: 92 (protein, listed as Chitinophaga pinensis)
chain: MARIVTLEEHVSFPEMTALLPEEILKNRKQSGAALQMQEKLADITGERLTSMKAAGISMQVLSVENTDVYLLPDSLAPAFAAKYNDLLADKISSHSDAFAAFAMLPMTVPEAAADELERAVKTHGFCGAMIKGLINGVFLDAPKFAPVFACAEKLGVPLYIHPGIPPKEVIDAYYSNVGDTKGPNEAIACYGWGWHSETAIHILRLLAAGIFDKYPQLNIIIGHMGEMLPMMWERSNRVFQPGNNGKNQRTLIETFRKQLYITTSGIFTQPPLQIAIDTIGIDNILFSIDYPFSSNQMGIDFLTKAALPAEQLAKMAHGNADRILKF

Numbering of substitutions follows the chain as printed.

A short description of one data set: 14C assay: 14CO2 capture from [14C]-carboxyl-labeled dicamba with IPTG-induced recombinant E. coli cells. The note with it: IPTG-induced recombinant E. coli cells; 14CO2 from [14C]-carboxyl-labeled dicamba.
For the molecule B1, the “Dicamba Decarboxylase Activity” value is “High”.
As for B2, the “Dicamba Decarboxylase Activity” value was “High”.
Turning to B3, the “Dicamba Decarboxylase Activity” value is “High”.
Consider B4, for which the “Dicamba Decarboxylase Activity” value is recorded as “High”.
Consider B5, for which the “Dicamba Decarboxylase Activity” value is “Low”.
Same read-out and setting: then B6, with “High”; and B7, with “High”; and B8, with “High”.
B9: the “Dicamba Decarboxylase Activity” value is reported as “High”.
For B10, the “Dicamba Decarboxylase Activity” value is “Low”.
B11: the “Dicamba Decarboxylase Activity” value is on record as “High”.
Regarding B12, the “Dicamba Decarboxylase Activity” value is recorded as “High”.
In the case of B13, the “Dicamba Decarboxylase Activity” value is on record as “Yes”.

Still in this data set, the particulars now being: among the 108 sequences tested; recombinant E. coli cell assay.
Take B1: the “decarboxylation activity of dicamba” value is reported as “showed decarboxylation activity of dicamba”.
As for B2, the “decarboxylation activity of dicamba” value is given as “showed decarboxylation activity of dicamba”.
Consider B3, for which the “decarboxylation activity of dicamba” value was “showed decarboxylation activity of dicamba”.
Regarding B4, the “decarboxylation activity of dicamba” value is “showed decarboxylation activity of dicamba”.
Take B6: the “decarboxylation activity of dicamba” value is “showed decarboxylation activity of dicamba”.
Same read-out and setting: the result for B7 reads “showed decarboxylation activity of dicamba”; that for B8, “showed decarboxylation activity of dicamba”.
The same measure, in the same setting: the result for B9 reads “showed decarboxylation activity of dicamba”.
Consider B11, for which the “decarboxylation activity of dicamba” value is reported as “showed decarboxylation activity of dicamba”.
Regarding B12, the “decarboxylation activity of dicamba” value was “showed decarboxylation activity of dicamba”.
B13: the “decarboxylation activity of dicamba” value is listed as “showed decarboxylation activity of dicamba”.

Still in this data set, the particulars now being: dicamba decarboxylation activity.
On to B1, for which the “Enzymatic Detection level” value is “High”.
B2: the “Enzymatic Detection level” value is “High”.
On the same count and under the same terms, the result for B3 reads “High”.
On to B4, for which the “Enzymatic Detection level” value is given as “High”.
Consider B5, for which the “Enzymatic Detection level” value is recorded as “Low”.
The same measure, in the same setting: then B6, with “High”; and B7, with “High”.
In the case of B8, the “Enzymatic Detection level” value is on record as “High”.
On the same count and under the same terms, then B9, with “High”; and B10, with “Low”; and B11, with “High”.
As for B12, the “Enzymatic Detection level” value is “High”.
As to B13, the “Enzymatic Detection level” value is “High”.

Values taken from patent US20140289906A1, “Compositions Having Dicamba Decarboxylase Activity and Methods of Use” (priority 2013, published 2014).
